Reference: the supplement of paper PMC9112550, “Optimization of the antimicrobial peptide Bac7 by deep mutational scanning” (BMC Biology, 2022)

System: Escherichia coli TOP10
Assay: shrunken log2 fold change of peptide-encoding DNA abundance (4.5 h post-induction vs induction); higher = less antimicrobial activity (less host growth inhibition)
Conditions: time post-induction: 4.5 h; library: site-saturation at positions 5, 18, 19, 20
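Also: peptides expressed intracellularly from a pBAD plasmid library in pooled LB shake-flask culture, induced with 0.3% L-arabinose, DNA abundance read by NGS, three biological replicates, DESeq2 with apeglm shrinkage.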

| Sequence | shrunken log2 fold change |
| --- | --- |
| RRIRGRPPRLPRPRPRPPPRPRP | 1.69 |
| RRIRARPPRLPRPRPRPHVKPRP | -0.289 |
| RRIRARPPRLPRPRPRPSKPPRP | -0.281 |
| RRIRHRPPRLPRPRPRPIAAPRP | -0.0333 |
| RRIRNRPPRLPRPRPRPKGAPRP | 0.476 |
| RRIRIRPPRLPRPRPRPVCEPRP | 0.0639 |
| RRIRCRPPRLPRPRPRPMDTPRP | 0.0459 |
| RRIRCRPPRLPRPRPRPYTEPRP | -1.42 |
| RRIRRRPPRLPRPRPRPGVIPRP | -0.0223 |
| RRIRPRPPRLPRPRPRPDWTPRP | -0.063 |
| RRIRIRPPRLPRPRPRPLNDPRP | -0.351 |
| RRIRQRPPRLPRPRPRPCIFPRP | -0.142 |
| RRIRVRPPRLPRPRPRPHGVPRP | 0.0673 |
| RRIRVRPPRLPRPRPRPEISPRP | -0.122 |
| RRIRFRPPRLPRPRPRPALVPRP | 0.273 |
| RRIRPRPPRLPRPRPRPVIPPRP | -0.213 |
| RRIRARPPRLPRPRPRPKLDPRP | 0.655 |
| RRIRWRPPRLPRPRPRPGSQPRP | 0.584 |
| RRIRTRPPRLPRPRPRPNLDPRP | 0.0338 |
| RRIRPRPPRLPRPRPRPSNGPRP | -0.113 |
| RRIRERPPRLPRPRPRPICVPRP | -0.301 |
| RRIRYRPPRLPRPRPRPACWPRP | 0.47 |
| RRIRQRPPRLPRPRPRPDNYPRP | -0.194 |

| Sequence | shrunken log2 fold change |
| --- | --- |
| RRIRLRPPRLPRPRPRPGHGPRP | -0.00133 |
| RRIRMRPPRLPRPRPRPKALPRP | 0.025 |
| RRIRGRPPRLPRPRPRPWCGPRP | 0.58 |
| RRIRPRPPRLPRPRPRPVMLPRP | -0.0771 |
| RRIRPRPPRLPRPRPRPDHCPRP | -0.199 |
| RRIRNRPPRLPRPRPRPSERPRP | -0.016 |
| RRIRDRPPRLPRPRPRPPRFPRP | 0.315 |
| RRIRSRPPRLPRPRPRPLCPPRP | -0.0602 |
| RRIRVRPPRLPRPRPRPWTQPRP | -0.219 |
| RRIRQRPPRLPRPRPRPDLLPRP | 0.126 |
| RRIRNRPPRLPRPRPRPQKGPRP | 0.0289 |
| RRIRRRPPRLPRPRPRPKMHPRP | 0.443 |
| RRIRPRPPRLPRPRPRPLDPPRP | 0.201 |
| RRIRGRPPRLPRPRPRPFYCPRP | -0.0638 |
| RRIRVRPPRLPRPRPRPIMNPRP | -0.752 |
| RRIRHRPPRLPRPRPRPFWQPRP | 0.0187 |
| RRIRYRPPRLPRPRPRPGCPPRP | -0.085 |
| RRIRYRPPRLPRPRPRPAWYPRP | -0.687 |
| RRIRYRPPRLPRPRPRPKIMPRP | -0.131 |
| RRIRDRPPRLPRPRPRPPDKPRP | 0.189 |
| RRIRTRPPRLPRPRPRPVVYPRP | -0.418 |
| RRIRQRPPRLPRPRPRPAPQPRP | 0.522 |
| RRIRYRPPRLPRPRPRPTRSPRP | -0.581 |

| Sequence | shrunken log2 fold change |
| --- | --- |
| RRIRHRPPRLPRPRPRPYQQPRP | -0.032 |
| RRIRKRPPRLPRPRPRPLNHPRP | -0.0528 |
| RRIRRRPPRLPRPRPRPECTPRP | 0.517 |
| RRIRCRPPRLPRPRPRPLDKPRP | -0.328 |
| RRIRRRPPRLPRPRPRPLPLPRP | 0.0912 |
| RRIRTRPPRLPRPRPRPNYCPRP | -0.0491 |
| RRIRCRPPRLPRPRPRPCYSPRP | -0.379 |
| RRIRCRPPRLPRPRPRPVPRPRP | 0.534 |
| RRIRQRPPRLPRPRPRPNANPRP | 0.00568 |
| RRIRKRPPRLPRPRPRPHHYPRP | -0.737 |
| RRIRLRPPRLPRPRPRPLVMPRP | -0.0627 |
| RRIRWRPPRLPRPRPRPIEPPRP | 0.0341 |
| RRIRTRPPRLPRPRPRPQNRPRP | -0.199 |
| RRIRVRPPRLPRPRPRPGWQPRP | 0.545 |
| RRIRWRPPRLPRPRPRPSVFPRP | 0.222 |
| RRIRIRPPRLPRPRPRPIPSPRP | -0.193 |
| RRIRRRPPRLPRPRPRPKYAPRP | -0.0331 |
| RRIRCRPPRLPRPRPRPGTWPRP | 0.011 |
| RRIRCRPPRLPRPRPRPVINPRP | -0.116 |
| RRIRIRPPRLPRPRPRPRGCPRP | 0.255 |
| RRIRSRPPRLPRPRPRPKTLPRP | 2.07 |
| RRIRWRPPRLPRPRPRPREKPRP | 1.16 |
| RRIRQRPPRLPRPRPRPQTWPRP | 0.126 |

| Sequence | shrunken log2 fold change |
| --- | --- |
| RRIRKRPPRLPRPRPRPKHCPRP | -0.222 |
| RRIRQRPPRLPRPRPRPPRLPRP | 0.287 |
| RRIRPRPPRLPRPRPRPPPHPRP | 0.657 |
| RRIRDRPPRLPRPRPRPMKMPRP | 0.0275 |
| RRIRNRPPRLPRPRPRPKWFPRP | 0.00131 |
| RRIRARPPRLPRPRPRPALVPRP | 0.597 |
| RRIRWRPPRLPRPRPRPGMCPRP | 0.437 |
| RRIRVRPPRLPRPRPRPFCCPRP | -0.0229 |
| RRIRSRPPRLPRPRPRPWSTPRP | -0.696 |
| RRIRARPPRLPRPRPRPITPPRP | -0.0533 |
| RRIRRRPPRLPRPRPRPWYKPRP | -0.371 |
| RRIRSRPPRLPRPRPRPCMWPRP | 0.0267 |
| RRIRARPPRLPRPRPRPHVRPRP | -0.0112 |
| RRIRSRPPRLPRPRPRPGAPPRP | 0.613 |
| RRIRGRPPRLPRPRPRPAMYPRP | 0.369 |
| RRIRNRPPRLPRPRPRPLSVPRP | -0.21 |
| RRIRYRPPRLPRPRPRPDSYPRP | -0.0836 |
| RRIRYRPPRLPRPRPRPLCSPRP | -0.0549 |
| RRIRQRPPRLPRPRPRPFHPPRP | -0.197 |
| RRIRRRPPRLPRPRPRPYIPPRP | -0.468 |
| RRIRNRPPRLPRPRPRPCSTPRP | -0.194 |
| RRIRQRPPRLPRPRPRPFGYPRP | -0.148 |
